assay: soluble on expression in E. coli; label from the status in PepcDB or PDB records

Soluble on expression in E. coli, not soluble:
MGSDKIHHHHHHMIFQLKGKFQHYPWGGRYFIPHFLKLTEVVDQPYAEYWLGAHPAASATIKFGEQWLPLADVIKQAPELLGERSRQQFGDNLPYLLKILDIKQPLSIQLHPNKAQAEYGFNQENRQGIPLEDVRRIYKDRNHKPEMMIALSDFWLLHGFKSITAIQACLAKYPSTSALAKSLVEKSLAVVYAEIMHADQTQLASWLRPIIEQRRADYLADKLKLSDPDYWLLYMTDDLAADAPLDAGLMCFYLFNIVHLKKGEGIYQAANLPHAYLRGQSIELMANSDNVIRGGLTTKWVDIPALLQAVDYRPVRPQIIAAYRDDKTVDQNFYLYPTPQAKDFALQRLTIRQLVENRFVTDSASMLLVMKGSLYIDLGNTSFHLNQGDAVFISADSHVELIGENDGYAIIASLP, MGSDKIHHHHHHMIGQSLFIRGARGVTLTPSGERYFQDVTTILHNLMLATEKAADKSPKDSLYIHSSPSFGLLWLLPRLESFKEKFPMIQVNLSCSYENLHFTRDKIDIDIRHGLPNWTGVEIRTIRNEKLEVLASPKLLERSPVHKPQDLLKKELILSRSTLVTWPQWFAHQGLSIPEFPYTLSFDRSYMSLEAATHGLGFVLESNLLTQNYLESGKLVRVFADELSIPISAHHLVYPRTHQFIPKIELFLNWIHDELAG, MGSDKIHHHHHHMIIDINMHHLPEDLFTNEKILDGFLSTAPRSYGEIASLGTIPETGKRQIILEKPKGYQNLNYVEGDYSLEAKLQAMDDNGVDKAILRVPVWQEWLKVDTCKIVNDNAAEMCKRSAGRLYATACVPPWGGKDNLYELERCVKDLGMVGVQLACHYGQLYLDDEAFKPYMKVLNELNVPVVVHHTPLPVYWQSVYEYTNLRRELGRIIDQATAVGRELFSGMFEEFPNLKFIHTMFGGNWFANYNLLMPHKGKKEEAMLRLDISESDRIKMYLKNNIYFDMTHPASWGKDQVECAIKVCGADHVLFGSSFPVFYNWMSQGIECVKSLDITEKERELITSGNAIRLFKLDV, MGSDKIHHHHHHMIILFGNQKGGCGKTTNCIQFANYLVEKGKEVLVLDLDFQRSLSDRRKEDIATYDNEPKYEVIQTDISNVAKIISDFTKVEQGNLLIDLPGKIDDDALGTILKAADIIICPFKYDKFTMDSTGFFIQVLQYLNVKAKIFFLPNNMRAAVRYETKEQVVDILKQVGFVTDEIPASVAMERINTLTISNECIDKVKNAYDYIIQEGAIK, MGSDKIHHHHHHMIKALLTVSTILVSSHALATDKPADKPWHNEKPTLSTINAPTKVMPMVCKQTQALAYLKELQSGKKDIYSVKSNDHGGKGANDSGWLTWRVDDPTNLIPCPKGGAADTEVGMCWKELNDEPTVIGLVRVAPGTAAPHYHREMECYYGLSGQGLTWAQERMQPFGAGDYIEIPSKAIHYTPNTYDDQDLIYMYWFPLDGKFSTFKYQWPKDVGPGEQLMFDFVPYTNSKTVRSGNDGYGWDVIQKSKK, MGSDKIHHHHHHMIKCIAVDDEPLALEQLTGYIARVPFLQLIASCQDAFSAMQVLSEEEVDLMFVDIHMPDLNGLDLVRSLVVKPLIVFTTAYPEYAVEGFKVDAVDYLLKPFEFQDLLKAADKARRQFEYHLQDNGGGTETDLLEKDGSLFVKSEYKIIRINVADICYIEGMSEYVRIYTDTADKPVVTLLSMRKLEERLPQEMFMRVHRSYIVNLRKITEVSRLRIIFNKNIYIPVGDNYKERFTEYINKICVSS, MGSDKIHHHHHHMIKKSDYPRYIQMLKRRPEFSGFTPDEFNQLEQQMRIKEYPKGQLLFDQADTRSRFYFVISGLLRSERIDETGDFSFYSFIAENKGFPYRGLFHDHEYAYAVNTMTPAVVASFPMAEFENLLTRNSEMMKRVVVEMGQIINENEDQLQQMVTSSASDRVRNALKILGRKLGNQLAGDRWFVPYAITLIELAKMAGTTRETASQVVQRLEADGQIIYEHKHFTIFIK, MGSDKIHHHHHHMIKNLSKAKSTSKTSSTTSETLTPANYYDRWTDQSFMSATWFKKFLACEAEALAELTGKWQPVRDAKALVVGNWLHSYFESKQAHEKFKDEHPESISKRGPTKGQLKSDFKVANAMIQSLTNDHDFNLLYQGDKEVIVTGEIGGYPWKGKIDCLNLKQGYFVDLKTTADIYKVYWNPETREKESFVYAYNYPLQMAVYQELIKQQFGVTCKPYIVAVSKQDPPDKQAIDLPEYRLTNAMNQVLESQQHLQDIIKGEADPIQCGHCAYCRSTKKLESVVSADDLLID, MGSDKIHHHHHHMILKFVIRMGLTISEKIEEIMSSNESNTTLYNISSLEHLHAIFRAYRPHNGFGVVYRGQADCHWKLLPKAGRQEYLLPDDRDLGVFKDWLDRAIAYENVPNYFIEQLALAQHHGLATRLLDWTINPLIACYFACCSYPDKDGVIYILELPKTFATVDLSMETLKECSEVISYRPRQFSPRILNQGGIFTIHNPPDTTIDIGPGRIALDMPNLVQIILGKNLKHDILEMLSDYGIDERYIYPDLDGLSRSLNHSMMRMVRQRVERIDL, MGSDKIHHHHHHMILLNYSQCFCLHNESRQKIAPSCWLNIGVHYMRIQQLRDLLEYVANCRLDMAQLYGRLNNQADSARVKMMLEYFESHQKHVAEKLRDYMDEAPVRVLDTWYKDFVFEDFTKRCQDTMLPANMNEDDVLNLHLDLENRLIGLLEKTVNSTTAEDARTALEGLIRVEKIQQQRLVHSTIRMDDI, MGSDKIHHHHHHMILPDRKQILDRELIRRIADTTISGSGHSDGLSEYASIRKAAFAFVESAVLGDQAYSPIENAELAFIVWILAALDENIITARTIIKARDTVYYYLRLVEHYEDLEEFGSRLGIEISVFGEQIGKDHLYRIGVADFATYASRVTGSKYRLSNQIVREGYVYVDEDVMAKVLREAFVSFMFDTLDQIRYYDAIETIKSVLDDLEKIRESYRKAHNVRMIAGKGDASMFPPCMKEIIKNLESGVNVSHMGRLALASFLHKAGYSEDEIVPYFRNAPDFDENITRYQIKHISGEISGTEYTPPKCETMRSNHLCYMDDDPLCHREWMKHPLTYYEVKRRNRKIR, MGSDKIHHHHHHMINQLMRSVDNLPAFPVTVIKVMDLLSRDDYSIAEVARVISFDQSITANILKVSNSAYFSFGRPIRTVLEAVARLGKENVIRAVQTAGISKFYKTTARGYVSVAADLWEHSVAVALMSQILSRRIYGREDSVLYSAALLHDVGKIIIGAYVYESLEKIQRVVDGRKCSFIEAEEEVIGINHAELGGKITGYWNLPEEICDAIAFHHRPDILDKNSVDMQWIVYLADQLCMMTGIGNGIDGLAYLGISEVLKKFNLREKDLETNMMNLMDDLRNARSILDMV, MGSDKIHHHHHHMIPISLIQETAEGLMDKAAIEIPQDYLDGLQEAARTEDGDLSSFVLKAMLDNYEAAKEDRRAMCGDTGVPRWFVKMGNDASVEGGMVALEAALRRATANATNGVPLRPNRVHPLWRTDHNNNVGIGAPEIEYGFEPEGEWIDLITVHKGGLFGTDYRMLFPSDGLQGIKRFYLDSLMAFGKRGLACQPAIIGIGLGGSKDICMTLGKRASTLRVVGSRNSDPRIAEMEDEFKALGNSIGMGAMGFVGKNMVIDCNIEVGYCHTGGLPMSVHAFCLSSRRAVARIHADGRVEHRTDPDWFTDYQRRETIDWPLAQEAAE, MGSDKIHHHHHHMIPTFVVWSQSMFNDAIVYDRYGPPAAVLTLKRLPLAPLAGGRVRVRMRFAPVNPSDLIPVTGAYRHRTRLPAVAGYEGLGEVVAAPYGSRLAAGQRVLPLRGGGTWQRFIDLDETWLVPVPPAVDDLLAARGYINPLTAMLMLKRWPVAGKHLVLTAASSSCASLLGQWALAMGARSVSGIIRSPQHRARLEQAGIYPILDTDRALMEKVSQHSDLVFDAVGGELANTLLSVLPGSSTLISYGLLSGRPLTQTRGSATVRKFHLREALPTLSVAAWRAAFDEIWQRLPTTSQPPAQRIALNDWRAAIAAAGQPGRGGKILLDFTAG, MGSDKIHHHHHHMIQIGKRYSLEVVKQVNFGVYLNAQELGQVLLPNKFVPTGCNVGDMVDVFLYLDSEDIVIATTQKSLAQVGEYAYLKVIATGPFGAFLDWGLDKDLLLPFGEQHKPAEEGHSYLVYVHANHADERIMASSKLDKFVDKTEAHYTEGEQVNLIIGGTTELGYKAIINNLHWGVIYANEVFQKLRFGQKVTGYIKTMRSDGKIDLVLQKGDKDELDKNARLIINKLRSANGFLPLHDKTDADVIYDKLGMSKKAFKKSIGGLFKAGEITIESEGIRLTV

— the DeepSol protein solubility set
